# Measurements taken from patent publication US20150322137A1 (EVEC, published 2015).
# Assays:
# Test in all cases: cell-based or functional assay
# [1] = molecular target: T1, F protein of human metapneumovirus strain JPS02-76 (type B1), on infectious virus (human metapneumovirus, strain JPS02-76 …, UniProt Q6WB98 19-539)
# [2] = molecular target: T2, F protein of human metapneumovirus strain JPS03-180 (type A1), on infectious virus (human metapneumovirus, strain JPS03-180 …)
# [3] = molecular target: T3, F protein of human metapneumovirus strain JPS05-21 (type B2), on infectious virus (human metapneumovirus, strain JPS05-21 …)
# [4] = molecular target: T4, F protein of human metapneumovirus strain JPS03-178 (type A2), on infectious virus (human metapneumovirus, strain JPS03-178 …)
# [5] = molecular target: T2, F protein of human metapneumovirus …; remark: listed apart in the source
# [6] = molecular target: T3, F protein of human metapneumovirus …; remark: listed apart in the source
# [7] = molecular target: T1, F protein of human metapneumovirus …; remark: listed apart in the source
# [8] = molecular target: T4, F protein of human metapneumovirus …; remark: listed apart in the source
# [9] = molecular target: T2, F protein of human metapneumovirus …; remark: listed apart in the source
# [10] = molecular target: T3, F protein of human metapneumovirus …; remark: listed apart in the source
# [11] = molecular target: T1, F protein of human metapneumovirus …; remark: listed apart in the source
# [12] = molecular target: T2, F protein of human metapneumovirus …; remark: listed apart in the source
# [13] = molecular target: T3, F protein of human metapneumovirus …; remark: listed apart in the source
# [14] = molecular target: T1, F protein of human metapneumovirus …; remark: listed apart in the source
# [15] = molecular target: T4, F protein of human metapneumovirus …; remark: listed apart in the source
Binder,"IC50, cell-to-cell spread inhibitory activity (LLC-MK2 cells stably expressing TMPRSS2) [1] [ng/mL]","IC90, cell-to-cell spread inhibitory activity (LLC-MK2 cells stably expressing TMPRSS2) [1] [ng/mL]","IC50, neutralizing activity (hMPV infection of LLC-MK2 cells; GraphPad Prism 6) [2] [ng/mL]","IC50, neutralizing activity (hMPV infection of LLC-MK2 cells; GraphPad Prism 6) [3] [ng/mL]","IC50, neutralizing activity (hMPV infection of LLC-MK2 cells; GraphPad Prism 6) [4] [ng/mL]","IC90, neutralizing activity (hMPV infection of LLC-MK2 cells; GraphPad Prism 6) [5] [ng/mL]","IC90, neutralizing activity (hMPV infection of LLC-MK2 cells; GraphPad Prism 6) [6] [ng/mL]","IC90, neutralizing activity (hMPV infection of LLC-MK2 cells; GraphPad Prism 6) [7] [ng/mL]","IC90, neutralizing activity (hMPV infection of LLC-MK2 cells; GraphPad Prism 6) [8] [ng/mL]","IC50, neutralizing activity (hMPV infection of LLC-MK2 cells) [9] [µg/mL]","IC50, neutralizing activity (hMPV infection of LLC-MK2 cells) [10] [µg/mL]","IC50, neutralizing activity (hMPV infection of LLC-MK2 cells) [11] [µg/mL]","IC60, neutralizing activity (hMPV infection of LLC-MK2 cells; GraphPad Prism 6) [12] [ng/mL]","IC60, neutralizing activity (hMPV infection of LLC-MK2 cells; GraphPad Prism 6) [13] [ng/mL]","IC60, neutralizing activity (hMPV infection of LLC-MK2 cells; GraphPad Prism 6) [14] [ng/mL]","IC60, neutralizing activity (hMPV infection of LLC-MK2 cells; GraphPad Prism 6) [15] [ng/mL]"
"EV046115b (antibody, human IgG1, lambda, V domains shown) VH: QVQLVQSGAEVKKPGASVKVSCKASGYTFSVYGISWVRQAPGHGLEWMGWISAYNGDRGYAQKVQGRITMTTDTSASTAYMELRSLTSDDTAVYYCATTSSGVPGIYWGQGSLVTVSS VL: not shown",134,617,322,108,2280,1030,345,2300,5740,0.29,0.099,0.27,400,133,376,2710
"EV046136 (antibody, human IgG1, kappa, V domains shown) VH: QVQLVQSGAEMKKPGASVKVSCKASGYTFTDYFIHWVRQAPGQGLEWMGWVNPNSGATNYAQKFQGRVTMTGDTSLSAAYVDLSRLSSDDSAVYYCARDRGLGISSTRNDAFDIWGQGTTVTVSS VL: DIQLTQSPSSLSASVGDRVTITCQPSQGIRNFLNWYQQKPGKAPNLLIYDASNLETGVASRFSGSGSGTHFTLTISSLQPEDIATYFCQQYHSLPLTFGGGTKVEIKR",52.2,212,318,537,318,605,1780,895,605,0.29,0.46,0.31,358,670,419,358
"EV046135 (antibody, human IgG1, lambda, V domains shown) VH: QEQLVESGGDLVKPGGSLRITCAASGFTLSGYALVWVRQAPGRGLEWIADITASSTYINYAASVKGRFTISRDNAQSSLFLQMSSLRADDTGVYFCARLPHLPGFFDLWGRGTLVSVSS VL: QSVLTQPPSVSGAPGQRVTISCTGNSSNIGAGYDVNWYQHLPGTAPKLLISVNTNRPSGVPDRFSGSMSGTSASLAITGLQAEDEADYYCQSYDRRLSGYVFGTGTKVTVLG",30.8,230,348,213,31.6,1240,748,1440,277,0.35,0.22,0.37,440,268,571,47.1
